Measurements reported in the supplement of paper PMC12636428.

System: Saccharomyces cerevisiae
Assay: transcriptional activation domain activity (GFP:mCherry ratio, weighted mean of sorted bins, harmonized to initial dataset scale) (arbitrary fluorescence ratio units); higher = stronger transcriptional activation
Details: beta-estradiol 1 µM; induction time 4 h
Outline: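 Activation activity, the read-weighted mean of bin median fluorescence averaged across barcodes, was linearly mapped onto the scale of the initial dataset. It was measured for barcoded protein tiles fused to an estradiol-inducible synthetic transcription factor at URA3 in GFP-reporter yeast diploids. Cultures diluted 1:5 into SC with 1 uM beta-estradiol were held 4 hours at 30 °C, sorted into 8 bins by GFP:mCherry ratio, and barcode-sequenced, and tiles under 50 reads were discarded.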

Row | Sequence | transcriptional activation domain activity
1 | PVVDLNSCFSNGFNNEKQEIEMETDDSPILLMSSSASRENSNTFSVIQRTPDG | 52900
2 | PWLLLIRYLALGTNLSMVVLTFGIFGLQWNRWISILTLRVYTMFNRKRVILWL | 61100
3 | PWTFDLGLFGLGLFGLFGLFGLFGLFGLGPFGLGLFGPLDFLALDFLDLWTFW | 18400
4 | PYIALIVLDVILIKLGSGRHIEYIQYVLTRATVKETEVLDFYAHIIYTTTLLI | 28800
5 | PYIAYPLKPCLSGPLCELYPSTSNLWAMCLHLILVCIQVPFLLSTPFWLLLPL | 74200
6 | PYILPLLILSKRLHSIFMLRCFNDCFAILFLFLAILCFQRRHWTVGSLIYSWG | 48300
7 | PYIVYPLKPCLSGPLCELYPSVMNLWAMCLHLILLCIQIPFLLSIPFWLLFPL | 86900
8 | PYLFIIRLLRLYKLPLIFMTSPVYIKTLKMMQNALGIGQTVAVIFPLTFWFCI | 27600
9 | PYLSRLGEKNILADLMEFYRCKESWSLQSGLVFIRRIILQQVPIDVRILCAFL | 35500
10 | PYQSSVDVLPRPLPVLRWTWVIVGISCFYFWCVSIPAPFLLFRICFPHFNLLT | 50500
11 | PYSLDIKNTVLDSADLNDIQNQETSLNLGLPPLSFDSPLPVTETIPSTTDNSL | 73400
12 | QAAAPAEKPATAAAGEAEKDGAAARGASTRGRGRGRGRGGRGGATAARRPRAD | 46200
13 | QAAFRQRRANYIATLEETGWVVSILLYLHRSSLSFSAVTSLESVVLQLQDSCR | 53400
14 | QAAQESDEESEAPNPTAKTLSKRAAEAWKQLSASDKDKYKVLADKEREEHARL | 28800
15 | QAARTSDYSIAQFRFLLKLLLVHGRWNYVRICKYTLGTFWKEMLFYSVQALYQ | 15400
16 | QAATGVGILLLLHDFKRVSIVILAQDGCDDEGWPNQLVAFAALLRSRLLKGGE | 22100
17 | QADYMCQYKGGLIGKHFKTLSQVMAFAVHGLVPPDVLEAWLILGRLTVLLWHT | 49400
18 | QAEDSNDNDNNNKAAAEEEEEEGGGERSGPMVNGNGGGGAEGMVNGASAVGRD | 14800
19 | QAFTIVDPTPPIRFYDLHRLHLTLVHSPMRFFHVAPIIPFLLSYLIELYSLFY | 43100
20 | QAGSTGSSSRKRKKAVTDGEETPSTSEPRRLRRSHEACARCRSKKIKASACDS | 28300
21 | QAHPPVQVRKTSHKAAEQKRRDSLKTTFDDLRGTASAAAPPVGRHGRACAPGA | 35300

Row | Sequence | transcriptional activation domain activity
22 | QANGVEKAVENLSISSPHPDTHAQSAPEQNGPKKKPNRAKARLARRAAEYEAL | 14100
23 | QAPQAGRGQGAQGGRTRHQAGGARAEEDEPQGARQEGRGGQGGGEEEARGGEG | 37600
24 | QARQAQEPAMSQKDLATKVNEKQSVINDYESGRAVPNQQLLAKLERALGVKLR | 51300
25 | QARQSKEPAMSQKDLATKVNEKQSVINDYESGRAVPNQQVLSKLERALGVKLR | 36800
26 | QASPEAAKAEGEKASPEAAKAEGEAQPAEGQKEGEAAKAEGEAAAAEAGAGAG | 27600
27 | QCAYVLEHCMDATPGIFNYIQLYYCSPVRPLVFVLLCAWLLFLFGFVGIAASD | 23300
28 | QCGLICTLYFANRYGIILGSLPFALQPFIHWTSKGWCLIFRIYLLIYASFVLL | 43200
29 | QCIFVLLVLLMRRHLAKMHLCLKQEIDWRELDDDRDTVTWVVAAVWQRFIDLK | 61000
30 | QCYNYLRVILMVSVGQGLARSVHWCMFLYQQGLDYVLWYYRNTLLLVSFLIGW | 62200
31 | QDAGGSGDKKGGVYVHCAMGKSRSVTCVVAYLLYRYPHRYGGTAGSSSTAQRR | 45800
32 | QDALVELFGHMENFFRRLEKHIEVRPTTAMTDIIVKIMVEVLSILGIVTKEIE | 41200
33 | QDEKHAEREGDTSSADGKEKSQDGDGGEKQKEGEGKPEKRNGVEAGAKNPAVK | 10600
34 | QDNLNIEDKEEMSPNIEIKNEQNMTDSNDILGVFDQLDAQLFGKYLPLNYPSE | 81700
35 | QEDDPMPYLSWTPTVGRNSAFVDLTEEQREELGGIEYRSLKLLLIILVCYYVG | 48300
36 | QEKEGGAKEAQPDADADAEAEGKAARQKARKAVVSAASDDEGDDEEEEEEEEG | 10000
37 | QELCRTANITYHRTSYPVVHRHLFSTPSLQRLMTWLKELPYQVAFQVELLVRG | 49100
38 | QENAQTEKEERDEKERAREKGNEKEKGNESEKGDEKKKGNEKKKGTERGKGKG | 28100
39 | QENHNSSENGNENENEQDSLALDDLDRAFELVEGMDMDWMMPSHAHHSPATTA | 123000
40 | QENTLPATQANSSLLETYPIVQSNPVTTTIKESPNSIMAGWDNWESDMVWRDV | 90100
41 | QEQEQEGMELGIKEGPADPRCKTCGRTEGTRKCTGCGRVRYCGRECQKKDWKV | 29700
42 | QESEAVTEKCKNRLDITSEELERVLLQKEGESLKDNAVQQRQGAGGKRAIGKA | 23500

Row | Sequence | transcriptional activation domain activity
43 | QESIPHQVGFSTPQLTAQQLIENAIESGVVDLETLDLPPFLSLDGLPPASSSA | 116000
44 | QESVYIEVISYIGLIFDWFWYYILMNLSVFIWLACMYYTIFLYGFLEAYFPEK | 33000
45 | QFALLLGSFLCVAISCFGHLALLFLWLIAPFYFLVFLFWQSFNLFLFVSVCCG | 44700
46 | QFARFTLEETNLMWKRAANPELTPLTSFPPLWVATRLRLFYVINSILSYFMTT | 60800
47 | QFFFFVLSFFFFVGFVGADDLCSFILFLLFFSTPFFFIGKASLLSSFFAFHST | 51700
48 | QFRYLKRLLLVHGHWSYARNGNMINNFFYKNIICIGVLWWFMIYCGWSSAYVF | 71200
49 | QFSWNVCFMVFLFLFLFLFLCFVCFTLLCLSKMLHNVLHYNFILCFLSSFCFV | 52400
50 | QGAAKAVFEPHFSQKDDEGNIIKKKFAVACRVRNCTKLDRMTVISALAAAVGQ | 46500
51 | QGASAGVSPIFKKEKYTLKWKRVKEFNLIFVAVYQSLLHLGWIDRLLENISTI | 67900
52 | QGDTDADGNGHGTHCSGTIAGKKYGVAKKAHVYAVKVLRSNGSGTMADVIGGV | 59600
53 | QGDYMCQYRGGLIGKHFKTLLQIMAFAVQDLVPPDVLEAWLILGRLTVLLWHM | 82000
54 | QGEEGEKKAGGRGRGGGRKKAEKHMAEGSGDEISPKKSGKGGEAGGSKAAAGA | 33700
55 | QGFMNVTFTNGRKYEALSKQLIFIVHAIFMAANDHVGYILLRALRVYMELDVY | 69900
56 | QGIEPLLPPKWGMLVGEARDLLVLFGALGEQERWNFWTTGCSYMTAMVLLTAN | 53000
57 | QGIGLMYLVLVMLCLASLLITNLHFLTVYRSTLIHSYMSQLIVFSFLLPLSLV | 44700
58 | QGRTLDVTRAVSRDRAEKLRETGERTRERKDKRNLYLMREGVIFVSTPSASTL | 39700
59 | QGTNHAYHEHILNTDMDLKILEDLCNISSLYEVPFGKHINHHDHNNAGNGCDG | 83400
60 | QHKKRRAEQAGRGEKAEADGSQARRKAEDRREEQQRAKQSAGQKEQEKVKAEQ | 56000
61 | QHLRSDPQMRLWLVMFLFLTFMVHTILSATLSIIFVSITYSLFWLPQIVRSAR | 30800
